Experimental data: US7268212B2, “Ligand of G protein-coupled receptor protein and DNA thereof” (Takeda Pharmaceutical Company Limited, priority 2001, dated 2007)
Non-standard residues stand in square brackets, D forms with d. Residues, ends and D or L forms follow the SMILES beside them. No end group written: not given here. Trp(6-Br) = N[C@@H](Cc1c[nH]c2cc(Br)ccc12)C(=O)O; dTrp(6-Br) = N[C@H](Cc1c[nH]c2cc(Br)ccc12)C(=O)O

Tests used:
GPR7 [1] = biological target: T1, GPR7 (Homo sapiens, UniProt P48145); experiment: Intracellular cAMP production suppression activity on human GPR7-expressed CHO cells; format: cell-based; design: The synthetic primers were constructed so as to amplify the gene in the region to be translated to its receptor protein; expressed in transfected cells; host or cells: CHO cells, membrane fraction; details: forskolin-promoted cAMP production; receptor-expressed CHO cells; read-out: IC50 (nM) human GPR7, cAMP production inhibition
T1 sequence (P48145 1-328): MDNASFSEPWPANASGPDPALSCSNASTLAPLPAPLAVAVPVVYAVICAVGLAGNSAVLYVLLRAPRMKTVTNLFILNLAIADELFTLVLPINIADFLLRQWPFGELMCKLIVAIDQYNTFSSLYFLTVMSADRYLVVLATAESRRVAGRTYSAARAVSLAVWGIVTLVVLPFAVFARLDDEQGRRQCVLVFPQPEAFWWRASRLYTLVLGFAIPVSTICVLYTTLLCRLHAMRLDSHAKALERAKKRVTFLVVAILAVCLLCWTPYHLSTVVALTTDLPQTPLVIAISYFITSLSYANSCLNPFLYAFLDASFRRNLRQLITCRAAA
Protocol: (§1) The intracellular cAMP production suppression activity of peptides associated with various GPR7 ligands on CHO cells, in which human GPR7, bovine GPR8, human GPR8, human GPR8, bovine GPR8 and rat GPR7 were expressed, was examined. […] An assay buffer was prepared by adding 20 mM HEPES, pH7.4, 0.1% bovine serum albumin and 0.2 mM 3-isobutyl-1-methylxanthine (Sigma) to Hanks' Balanced Salt Solution (Gibco BRL). The plate incubated overnight was first washed twice with 150 μl of the assay buffer, and then exchanged with 150 μl of the assay buffer, followed by incubation for 30 minutes at 37° C. in 100% air. By adding 4 μM forskolin to the assay buffer, a buffer for sample dilution was prepared and the stock solution (10^−2 M of 10^−3 M) was diluted with the buffer thus obtained to prepare sample solutions in final concentrations of 10^−6 M, 10^−7 M, 10^−8 M, 10^−9 M and 10^−10 M. The plate incubated with the assay buffer for 30 minutes was taken out. After washing twice with the assay buffer, 50 μl of the assay buffer and then 50 μl of the sample solution were added thereto. Each sample was assayed in triplet. […] A difference between the maximum cAMP level and the cAMP level when each sample was added was calculated and the percentage of cAMP production level promoted by forskolin was worked out, which was made the cAMP production inhibition rate.

GPR7 [2] = biological target: T1, GPR7; experiment: Test on binding inhibition of various peptides against human GPR7-expressed CHO cell membrane fraction; design: The synthetic primers were constructed so as to amplify the gene in the region to be translated to its receptor protein; expressed in transfected cells; host or cells: CHO cells, membrane fraction; details: iodine-labeled hGPR7L-23; human GPR7-expressed CHO cell membrane fraction 1 μg/well; room temperature 1.5 hour
Protocol: A mixture of 20 μl of hGPR7L-23 (SEQ ID NO:1) (0.1 mM or 1 mM), 20 μl of lactoperoxidase (Sigma; prepared using 10 μg/ml and 0.1M HEPES-NaOH pH7.0), 20 μl of Idoine-125 (manufactured by Amersham, MS-30, 74 MBq), 20 μl of 0.005% hydrogen peroxide (manufactured by Wako Pure Chemical Industries, Ltd.) was allowed to stand at room temperature for 20 to 30 minutes. Then, 600 μl of 0.1% TFA was added to the mixture. The mixture was applied to reverse phase HPLC for separation and the peaks of the two'labeled products were fractionated in a tube charged with 1 mL of DMSO. Immediately, the fraction was stored on ice and an aliquot was provided for measurement of the radioactivity with a γ-counter. The remaining preparation was dispensed and stored at −30° C.
Human GPR7-expressed CHO cells were cultured in a flask. The flask was washed with 5 mM EDTA/PBS to strip the cells off. The cells were stripped off with 5 mM EDTA/PBS and centrifuged for recovery. The recovered cells were suspended in 25 mL of a buffer for preparing membrane fraction (50 mM Tris-HCl, pH7.5, 5 mM EDTA, 0.1% bovine serum albumin (manufactured by Sigma), 0.5 mM PMSF (manufactured by Wako Pure Chemical Industries, Ltd.), 20 μg/mL leupeptin (manufactured by Peptide Research Institute), 0.1 μg/mL pepstatin A (manufactured by Peptide Research Institute) and 4 μg/mL E-64 (manufactured by Peptide Research Institute)), followed by homogenization on ice using a polytron (12,000 rpm, 15 seconds×3 times). The homogenate was centrifuged at 4° C. under 1,000 g for 10 minutes with a high speed cooling centrifuge to recover the supernatant. […] The pellets were recovered and suspended in a small quantity of the buffer for preparing membrane fractions. […]
Using the assay buffer, the human GPR7-expressed CHO cell membrane fraction was diluted in a final concentration of 1 μg/well and iodine-labeled hGPR7L-23 (SEQ ID NO:1) was diluted in a final concentration of […]. […] After 50 μl of a liquid scintillator was dispensed thereto, the radioactivity was counted on a Top Count (Packard) and the data was analyzed in triplet (FIG. 33). […]

bovine GPR7 = biological target: T2, bovine GPR7 (Bos taurus, UniProt Q8MJV3); experiment: Intracellular cAMP production suppression activity on bovine GPR7-expressed CHO cells; format: cell-based; details: forskolin-promoted cAMP production; receptor-expressed CHO cells; read-out: IC50 (nM) bovine GPR7, cAMP production inhibition
T2 construct: expressed in transfected cells; host or cells: CHO cells
T2 sequence (Q8MJV3 1-331): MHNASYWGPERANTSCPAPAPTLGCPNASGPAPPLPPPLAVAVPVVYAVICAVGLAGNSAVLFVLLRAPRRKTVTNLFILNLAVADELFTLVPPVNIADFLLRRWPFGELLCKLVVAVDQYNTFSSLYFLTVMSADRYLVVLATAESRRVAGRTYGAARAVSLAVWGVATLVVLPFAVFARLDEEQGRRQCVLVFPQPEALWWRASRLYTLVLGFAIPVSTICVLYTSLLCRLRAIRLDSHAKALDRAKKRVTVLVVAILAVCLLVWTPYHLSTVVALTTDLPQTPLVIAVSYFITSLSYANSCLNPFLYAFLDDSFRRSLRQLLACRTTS
Protocol: as §1

GPR7 [3] = biological target: T1, GPR7; details: reported by O'Dowd, B. F. et al.; cited from earlier work
human GPR7 = biological target: T3, human GPR7 (human); experiment: competition, radioligand
T3 chain: T1 sequence (P48145 1-328)

CC(C)C[C@H](NC(=O)CNC(=O)[C@H](C)NC(=O)[C@H](C)NC(=O)[C@H](CCCNC(=N)N)NC(=O)CNC(=O)[C@@H](NC(=O)[C@H](CO)NC(=O)[C@H](Cc1ccc(O)cc1)NC(=O)[C@H](Cc1ccc(O)cc1)NC(=O)CNC(=O)[C@H](CCC(N)=O)NC(=O)CNC(=O)[C@H](C)NC(=O)[C@@H](NC(=O)[C@@H]1CCCN1C(=O)[C@H](CCCCN)NC(=O)[C@H](Cc1ccc(O)cc1)NC(=O)[C@@H](N)Cc1c[nH]c2cc(Br)ccc12)[C@@H](C)O)C(C)C)C(=O)N[C@@H](CC(C)C)C(=O)N[C@@H](CO)C(=O)NCC(=O)N[C@@H](Cc1ccccc1)C(=O)N[C@@H](Cc1c[nH]cn1)C(=O)N[C@@H](CCCNC(=N)N)C(=O)N[C@@H](CO)C(=O)N1CCC[C@H]1C(=O)N[C@@H](Cc1ccc(O)cc1)C(=O)N[C@@H](C)C(=O)O [LTrp(6Br)1-bovine GPR7L(29)] (H-[Trp(6-Br)]YKPTAGQGYYSVGRAAGLLSGFHRSPYA-OH; N-terminus and C-terminus assumed)
IC50 (GPR7 [1]): 0.58 nM | IC50 (GPR7 [2]): 0.34 nM

WYKPAAGSHHYSVGRAAGLLSSFH [Trp1-rat GPR7L(24)]
IC50 (GPR7 [1]): 0.31 nM

WYKPAAGSHHYSVGRAAGLLSSFHRFPST [Trp1-rat GPR7L(29)]
IC50 (GPR7 [2]): 0.34 nM | IC50 (bovine GPR7): 1.2 nM

β-endorphin
inhibition of [3H] bremazocine binding to the membrane fraction of GPR7 (GPR7 [3]): inhibited

WYKPTAGQGYYSVGRAAGLLSGFHRSPYA [Trp1-bovine GPR7L(29)]
IC50 (human GPR7): 310 pM

WYKHVASPRYHTVGRAAGLLMGL [Trp1-human GPR8L(23)]
IC50 (human GPR7): 400 pM

[dTrp(6-Br)]YKPTAGQGYYSVGRAAGLLSGFHRSPYA [DTrp(6Br)1-bovine GPR7L(29)]
IC50 (human GPR7): 6100 pM

WYKPAAGSHHYSVGRAAGLLSSFH [Trp1-rat GPR7L(24)]
IC50 (human GPR7): 300 pM

[Trp(6-Br)]YKPAAGHSSYSVGRAAGLLSGLRRSPYA [LTrp(6Br)1-human GPR7L(29)]
IC50 (human GPR7): 320 pM

WYKPAAGSHHYSVGRAAGLLSSFHRFPST [Trp1-rat GPR7L(29)]
IC50 (human GPR7): 340 pM

WYKPAAGHSSYSVGRAAGLLSGL [Trp1-human GPR7L(23)]
IC50 (human GPR7): 1600 pM

[Trp(6-Br)]YKPTAGQGYYSVGRAAGLLSGFHRSPYA [LTrp(6Br)1-bovine GPR7L(29)]
IC50 (human GPR7): 340 pM

B1: DTrp(6Br)1-human GPR7L(29) (peptide)
chain: WYKPAAGHSSYSVGRAAGLLSGLRRSPYA
modifications: not fully specified (residue 1); printed as D-Trp(6Br)-Tyr-Lys-Pro-Ala-Ala-Gly-His-Ser-Ser-Tyr-Ser-Val-Gly-Arg-Ala-Ala-Gly-Leu-Leu-Ser-Gly-Leu-Arg-Arg-Ser-Pro-Tyr-Ala
IC50 (human GPR7): 13000 pM

WYKPAAGHSSYSVGRAAGLLSGLRRSPYA [Trp1-human GPR7L(29)]
IC50 (human GPR7): 330 pM
